# From patent US8168592B2 (Amgen Inc., priority 2005, dated 2012)
# Where two headings read alike, the source gives them in different places. Square brackets hold non-standard residues; d marks the D form. Ends that are not written are not given here. Peptide text beside a SMILES is read from it. Oic = O=C(O)[C@@H]1C[C@@H]2CCCC[C@@H]2N1; 2Nal = N[C@@H](Cc1ccc2ccccc2c1)C(=O)O; hArg = N=C(N)NCCCC[C@H](N)C(=O)O; Cit = NC(=O)NCCC[C@H](N)C(=O)O; PEG = not defined here
# How the values were obtained:
# [1] = rat pharmacokinetic studies; details: rat, 2 mg/kg, mean, n = 3
# Experimental: Rat pharmacokinetic studies. […] There were three rats per group (n=3), each weighing 250-325 g. Each group received either a 2 mg/kg intravenous or subcutaneous discrete administration. The approximate dose volume was 0.3 mL per rat. Approximately 0.25 mL of whole blood was taken per time point at the following post-dose collection times for the intravenous groups (in hours): 0.083, 0.25, 0.5, 1, 2, 4, 6, 8, 24, 48, 72, 96 and the following time points for the subcutaneous groups (in hours): 0.25, 0.5, 1, 2, 4, 6, 8, 24, 48, 72, 96. Whole blood samples were collected in microtainer vials containing EDTA as anticoagulant and were kept on wet ice until processed for plasma. The plasma was obtained by centrifuging the whole blood for approximately 5 min at 11,500 rpm. Plasma was transferred to new tubes and stored frozen at approximately −70° C. until quantitative analysis. […] The individual sample concentrations for each time point were averaged (n=3) within a given dose group using Excel 2000 software. The averaged plasma concentration-time data were analyzed by noncompartmental methods using WinNonlin v.3.3 software. Nominal sample times were used in the pharmacokinetic analysis. The area under the concentration-time curve was calculated using the linear/log trapezoidal method to determine exposure.
# [2] = target: T1, CGRP1 receptor (Homo sapiens, UniProt O60894+Q16602); assay: in vitro CGRP1 receptor mediated cAMP assay in SK-N-MC cells; assay type: cell-based
# T1 construct: SK-N-MC cells express CRLR and RAMP1, which form CGRP1 receptor; endogenous in cells; host or cells: SK-N-MC human neuroblastoma cells
# T1 sequence (Q16602 23-461): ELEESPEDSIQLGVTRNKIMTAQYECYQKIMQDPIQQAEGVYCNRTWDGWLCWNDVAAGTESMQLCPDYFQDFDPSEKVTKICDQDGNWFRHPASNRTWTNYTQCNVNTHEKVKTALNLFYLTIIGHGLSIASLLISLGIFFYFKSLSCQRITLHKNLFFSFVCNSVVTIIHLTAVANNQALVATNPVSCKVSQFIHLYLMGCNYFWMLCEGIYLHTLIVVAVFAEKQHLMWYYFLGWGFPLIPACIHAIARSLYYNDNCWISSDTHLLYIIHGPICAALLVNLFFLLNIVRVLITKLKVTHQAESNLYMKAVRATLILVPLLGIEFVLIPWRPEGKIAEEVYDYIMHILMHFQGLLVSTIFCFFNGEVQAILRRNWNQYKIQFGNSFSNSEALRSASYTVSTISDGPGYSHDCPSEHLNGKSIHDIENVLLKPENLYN
# T1 sequence (O60894 27-148): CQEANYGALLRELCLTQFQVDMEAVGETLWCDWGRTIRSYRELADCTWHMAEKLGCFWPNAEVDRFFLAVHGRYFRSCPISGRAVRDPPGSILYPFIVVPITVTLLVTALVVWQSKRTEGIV
# Outline: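 Intracellular cAMP served as the Gs-coupled CGRP1 readout in endogenously expressing SK-N-MC cells. After a 15-minute room-temperature step in plasma-free medium, cell lysates (30 minutes, 37° C) went into a competitive ELISA with a cAMP-AP conjugate and anti-cAMP antibody for 1 hour, then a 30-minute substrate enhancer step before reading.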
# [3] = Table 2C, unconjugated peptide, read-out: Peptide IC50
compound,measurement,setting,value
"SEQ ID NO: 32: PEGylated R11Cit, R18Cit analog (product of SEQ ID NO:31) (WVTHXLAGLLSXSGGVVRKNFVPTDVGPFAF; PEGylated; citrulline at 11 and 18; CGRP peptide; MOD_RES (1)..(1): …ON; MISC_FEATURE (5)..(5): xaa=citrulline; MISC_FEATURE (12)..(12): xaa=citrulline; MISC_FEATURE (19)..(19): PEGylated; MOD_RES (31)..(31): AMIDATION)",AUC0-inf,[1]; IV,40431 ng·h/mL
same,AUC0-t,[1]; IV,40250 ng·h/mL
same,CL,[1]; IV,49 mL/h/kg
same,MRT,[1]; IV,4.12 h
same,Vss,[1]; IV,204 mL/kg
same,t1/2,[1]; IV,42.78 h
same,AUC0-inf,[1]; SC,19046 ng·h/mL
same,AUC0-t,[1]; SC,18933 ng·h/mL
same,CL/F,[1]; SC,105 mL/h/kg
same,Cmax,[1]; SC,1879 ng/mL
same,F %,[1]; SC,47%
same,Tmax,[1]; SC,4.00 h
same,t1/2,[1]; SC,29.98 h
SEQ ID NO: 15: 20 kDa PEG conjugate of SEQ ID NO:7 (reductive alkylation) (Ac-WVTHRLAGLLSRSGGVVRK(20 kDa PEG)NFVPTDVGPFAF-NH2),AUC0-inf,[1]; IV,12959 ng·h/mL
same,AUC0-t,[1]; IV,12940 ng·h/mL
same,CL,[1]; IV,154 mL/h/kg
same,MRT,[1]; IV,1.10 h
same,Vss,[1]; IV,174 mL/kg
same,t1/2,[1]; IV,10.60 h
same,AUC0-inf,[1]; SC,1542 ng·h/mL
same,AUC0-t,[1]; SC,1264 ng·h/mL
same,CL/F,[1]; SC,1257 mL/h/kg
same,Cmax,[1]; SC,137 ng/mL
same,Tmax,[1]; SC,2.00 h
same,t1/2,[1]; SC,22.37 h
SEQ ID NO: 40: double glutamine analog PEGylated through amine linkage (Ac-WVTHQLAGLLSQSGGVVRK(PEG)NFVPTDVGPFAF-NH2; reading uncertain),AUC0-inf,[1]; IV,10666 ng·h/mL
same,AUC0-t,[1]; IV,10651 ng·h/mL
same,CL,[1]; IV,187 mL/h/kg
same,MRT,[1]; IV,2.63 h
same,Vss,[1]; IV,496 mL/kg
same,t1/2,[1]; IV,32.57 h
same,AUC0-inf,[1]; SC,1223 ng·h/mL
same,AUC0-t,[1]; SC,1212 ng·h/mL
same,CL/F,[1]; SC,1634 mL/h/kg
same,Cmax,[1]; SC,121 ng/mL
same,F %,[1]; SC,11%
same,Tmax,[1]; SC,4.00 h
same,t1/2,[1]; SC,27.15 h
CC(C)C[C@H](NC(=O)CNC(=O)[C@H](C)NC(=O)[C@H](CC(C)C)NC(=O)[C@H](CCCNC(=N)N)NC(=O)[C@H](Cc1cnc[nH]1)NC(=O)[C@@H](NC(=O)[C@@H](NC(=O)[C@@H](N)Cc1c[nH]c2ccccc12)C(C)C)[C@@H](C)O)C(=O)N[C@@H](CC(C)C)C(=O)N[C@@H](CO)C(=O)N[C@@H](CCCNC(=N)N)C(=O)N[C@@H](CO)C(=O)NCC(=O)NCC(=O)N[C@H](C(=O)N[C@H](C(=O)N[C@@H](CCCCN)C(=O)N[C@@H](CC(N)=O)C(=O)N[C@@H](CC(N)=O)C(=O)N[C@@H](Cc1ccccc1)C(=O)N[C@H](C(=O)N1CCC[C@H]1C(=O)N[C@H](C(=O)N[C@@H](CC(N)=O)C(=O)N[C@H](C(=O)NCC(=O)N[C@@H](CO)C(=O)N[C@@H](CCCCN)C(=O)N[C@@H](C)C(=O)N[C@@H](Cc1ccccc1)C(N)=O)C(C)C)[C@@H](C)O)C(C)C)C(C)C)C(C)C [compound 4],IC50,"[2]; Table 3, unconjugated CGRP peptide analogs, n = 2-4, read-out: IC50",0.64 nM
CC(=O)N[C@@H](Cc1c[nH]c2ccccc12)C(=O)N[C@H](C(=O)N[C@H](C(=O)N[C@@H](Cc1cnc[nH]1)C(=O)N[C@@H](CCCNC(N)=O)C(=O)N[C@@H](CC(C)C)C(=O)N[C@@H](C)C(=O)NCC(=O)N[C@@H](CC(C)C)C(=O)N[C@@H](CC(C)C)C(=O)N[C@@H](CO)C(=O)N[C@@H](CCCNC(N)=O)C(=O)N[C@@H](CO)C(=O)NCC(=O)NCC(=O)N[C@H](C(=O)N[C@H](C(=O)N[C@@H](CCCCNC(=N)N)C(=O)N[C@@H](CCCCN)C(=O)N[C@@H](CC(N)=O)C(=O)N[C@@H](Cc1ccccc1)C(=O)N[C@H](C(=O)N1CCC[C@H]1C(=O)N[C@H](C(=O)N[C@@H](CC(=O)O)C(=O)N[C@H](C(=O)NCC(=O)N1CCC[C@H]1C(=O)N[C@@H](Cc1ccccc1)C(=O)N[C@@H](C)C(=O)N[C@@H](Cc1ccccc1)C(N)=O)C(C)C)[C@@H](C)O)C(C)C)C(C)C)C(C)C)[C@@H](C)O)C(C)C [compound 653],IC50,"[2]; Table 2A, read-out: IC50",3.22 nM
CC(=O)N[C@@H](Cc1c[nH]c2ccccc12)C(=O)N[C@H](C(=O)N[C@H](C(=O)N[C@@H](Cc1c[nH]cn1)C(=O)N[C@@H](CCCNC(N)=O)C(=O)N[C@@H](CC(C)C)C(=O)N[C@@H](C)C(=O)NCC(=O)N[C@@H](CC(C)C)C(=O)N[C@@H](CC(C)C)C(=O)N[C@H](CO)C(=O)N[C@@H](CCCNC(N)=O)C(=O)N[C@@H](CO)C(=O)NCC(=O)NCC(=O)N[C@H](C(=O)N[C@H](C(=O)N[C@@H](CCCCNC(=N)N)C(=O)N[C@@H](CCCCN)C(=O)N[C@@H](CC(N)=O)C(=O)N[C@@H](Cc1ccc2ccccc2c1)C(=O)N[C@H](C(=O)N1CCC[C@H]1C(=O)N[C@H](C(=O)N[C@@H](CC(=O)O)C(=O)N[C@H](C(=O)NCC(=O)N1[C@H](C(=O)N[C@@H](Cc2ccccc2)C(=O)N[C@@H](C)C(=O)N[C@@H](Cc2ccccc2)C(N)=O)C[C@@H]2CCCC[C@@H]21)C(C)C)[C@@H](C)O)C(C)C)C(C)C)C(C)C)[C@@H](C)O)C(C)C [compound 953] (Ac-WVTH[Cit]LAGLL[dS][Cit]SGGVV[hArg]KN[2Nal]VPTDVG[Oic]FAF-NH2),IC50,[2]; [3],2.66 nM
CC(=O)N[C@@H](Cc1c[nH]c2ccccc12)C(=O)N[C@H](C(=O)N[C@H](C(=O)N[C@@H](Cc1cnc[nH]1)C(=O)N[C@@H](CCCNC(N)=O)C(=O)N[C@@H](CC(C)C)C(=O)N[C@@H](C)C(=O)NCC(=O)N[C@@H](CC(C)C)C(=O)N[C@@H](CC(C)C)C(=O)N[C@@H](CO)C(=O)N[C@@H](CCCNC(N)=O)C(=O)N[C@@H](CO)C(=O)NCC(=O)NCC(=O)N[C@H](C(=O)N[C@H](C(=O)N[C@@H](CCCCN=C(N)N)C(=O)N[C@@H](CCCCN)C(=O)N[C@@H](CC(N)=O)C(=O)N[C@@H](Cc1ccccc1)C(=O)N[C@H](C(=O)N1CCC[C@H]1C(=O)N[C@H](C(=O)N[C@@H](CC(=O)O)C(=O)N[C@H](C(=O)NCC(=O)N1CSC[C@H]1C(=O)N[C@@H](Cc1ccccc1)C(=O)N[C@@H](C)C(=O)N[C@@H](Cc1ccccc1)C(N)=O)C(C)C)[C@@H](C)O)C(C)C)C(C)C)C(C)C)[C@@H](C)O)C(C)C [compound 671],IC50,"[2]; Table 2A, read-out: IC50",2.15 nM
CC(=O)N[C@H](C(=O)N[C@H](C(=O)N[C@@H](Cc1c[nH]cn1)C(=O)N[C@@H](CCCNC(N)=O)C(=O)N[C@@H](CC(C)C)C(=O)N[C@@H](C)C(=O)NCC(=O)N[C@@H](CC(C)C)C(=O)N[C@@H](CC(C)C)C(=O)N[C@@H](CO)C(=O)N[C@@H](CCCNC(N)=O)C(=O)N[C@@H](CO)C(=O)NCC(=O)NCC(=O)N[C@H](C(=O)N[C@H](C(=O)N[C@@H](CCCCNC(=N)N)C(=O)N[C@@H](CCCCN)C(=O)N[C@@H](CC(N)=O)C(=O)N[C@@H](Cc1ccccc1)C(=O)N[C@H](C(=O)N1CCC[C@H]1C(=O)N[C@H](C(=O)N[C@@H](CC(=O)O)C(=O)N[C@H](C(=O)NCC(=O)N1[C@H](C(=O)N[C@@H](Cc2ccccc2)C(=O)N[C@@H](C)C(=O)N[C@@H](Cc2ccccc2)C(N)=O)C[C@@H]2CCCC[C@@H]21)C(C)C)[C@@H](C)O)C(C)C)C(C)C)C(C)C)[C@@H](C)O)C(C)C [compound 660] (Ac-VTH[Cit]LAGLLS[Cit]SGGVV[hArg]KNFVPTDVG[Oic]FAF-NH2),IC50,"[2]; Table 2A, read-out: IC50",3 nM
CC(=O)N[C@@H](Cc1c[nH]c2ccccc12)C(=O)N[C@H](C(=O)N[C@H](C(=O)N[C@@H](Cc1c[nH]cn1)C(=O)N[C@@H](CCCNC(=N)N)C(=O)N[C@@H](CC(C)C)C(=O)N[C@@H](C)C(=O)NCC(=O)N[C@@H](CC(C)C)C(=O)N[C@@H](C)C(=O)N[C@@H](CO)C(=O)N[C@@H](CCCNC(N)=O)C(=O)N[C@@H](CO)C(=O)NCC(=O)NCC(=O)N[C@H](C(=O)N[C@H](C(=O)N[C@@H](CCCNC(=N)N)C(=O)N[C@@H](CCCCN)C(=O)N[C@@H](CC(N)=O)C(=O)N[C@@H](Cc1ccccc1)C(=O)N[C@H](C(=O)N1CCC[C@H]1C(=O)N[C@H](C(=O)N[C@@H](CC(=O)O)C(=O)N[C@H](C(=O)NCC(=O)N1CCC[C@H]1C(=O)N[C@@H](Cc1ccccc1)C(=O)N[C@@H](C)C(=O)N[C@@H](Cc1ccccc1)C(N)=O)C(C)C)[C@@H](C)O)C(C)C)C(C)C)C(C)C)[C@@H](C)O)C(C)C [compound 850] (Ac-WVTHRLAGLAS[Cit]SGGVVRKNFVPTDVGPFAF-NH2),IC50,"[2]; Table 2D, read-out: IC50",1.85 nM
SEQ ID NO:4 (WVTHRLAGLLSRSGGVVKNNFVPTNVGSKAF-NH2),improved potency relative to native CGRP(8-37) (SEQ ID NO:1),[2]; cAMP assay,greater than 7 fold
CC(=O)N[C@@H](Cc1c[nH]c2ccccc12)C(=O)N[C@H](C(=O)N[C@H](C(=O)N[C@@H](Cc1c[nH]cn1)C(=O)N[C@@H](CCCNC(N)=O)C(=O)N[C@@H](CC(C)C)C(=O)N[C@@H](C)C(=O)NCC(=O)N[C@@H](CC(C)C)C(=O)N[C@@H](CC(C)C)C(=O)N[C@@H](CO)C(=O)N[C@@H](CCCNC(N)=O)C(=O)N[C@@H](CO)C(=O)NCC(=O)NCC(=O)N[C@H](C(=O)N[C@H](C(=O)N[C@@H](CCCNC(=N)N)C(=O)N[C@@H](CCCCN)C(=O)N[C@@H](CC(N)=O)C(=O)N[C@@H](Cc1ccccc1)C(=O)N[C@H](C(=O)N1CCC[C@H]1C(=O)N[C@H](C(=O)N[C@@H](CC(=O)O)C(=O)N[C@H](C(=O)NCC(=O)N1[C@H](C(=O)N[C@@H](Cc2ccccc2)C(=O)N[C@@H](C)C(=O)N[C@@H](Cc2ccccc2)C(N)=O)C[C@@H]2CCCC[C@@H]21)C(C)C)[C@@H](C)O)C(C)C)C(C)C)C(C)C)[C@@H](C)O)C(C)C [compound 920] (Ac-WVTH[Cit]LAGLLS[Cit]SGGVVRKNFVPTDVG[Oic]FAF-NH2),IC50,[2]; [3],0.85 nM
